For test [1], the target named is T1, CaptureSelect Kappa XL ligand.
T1 construct: also called Biotin-KappaXL; Kappa XL column
Description: CaptureSelect Kappa XL affinity column after Protein A. The source says:
Multispecific binding proteins of the present disclosure, in clarified medium or recovered from Protein A purification, may be subjected to a second purification step using a CaptureSelect™ Kappa XL (Thermo Fisher Cat. #494321001) pre-packed affinity column. Briefly, multispecific binding proteins of the present disclosure recovered from Protein A purification are subjected to a Kappa XL affinity column which has been equilibrated with a compatible buffer, such as phosphate buffered saline (PBS) at pH 7.4. The column is then washed to remove nonspecific binding components. The bound multispecific binding protein is eluted, for example, by pH gradient (such as 20 mM Tris buffer pH 7.0 to 10 mM sodium citrate buffer pH 3.0). Binding protein fractions are detected, such as by UV absorbance or SDS-PAGE, and then are pooled.
Percent flow through (% F T) and percent elution of exemplified heteromabs of the present disclosure following kappa XL column purification essentially as described herein is assessed. Briefly, various antibody formats (as set forth in Table 3) are subjected to Kappa XL column. Flow through material is considered to comprise of impurities, such as homodimers, or misassembled antibodies, whereas the Kappa XL ligand bound material (elution material) is considered to be the correctly assembled bispecific antibody.

The target in another test is T2, human TIGIT-ECD (human, UniProt Q495A1 22-141).
T2 construct: extracellular domain
T2 sequence (looked up): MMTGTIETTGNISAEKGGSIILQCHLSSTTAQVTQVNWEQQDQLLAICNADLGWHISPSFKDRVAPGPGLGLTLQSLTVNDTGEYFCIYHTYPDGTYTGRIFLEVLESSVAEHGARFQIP
Description: ELISA, antibody at 1 µg/mL captured by anti-human-Fc, antigen titrated. Here is the method:
(§1) Binding affinity of exemplified multispecific binding proteins provided herein is assessed via ELISA. Briefly, 384-well flat bottom Elisa plates are coated with 1 ug/mL anti-human-Fc protein at 20 ul/well and incubated overnight at 4° C. The following day, plates are washed 3× with wash buffer (0.05% PBS-Tween 20) and blocked for 1 hr with blocking buffer (casein, 60 μL/well) at room temperature (RT). Plates are washed 3× with wash buffer, and binding proteins as shown in Table 10 are added at 1 μg/mL in triplicates at 20 uL/well in DPBS (Dulbecco's HyClone). Plates are incubated at RT for 1 hr, washed 3× with wash buffer, and titrated antigens are added at 20 ul/well and incubated for 60 min at RT. Plates are washed 3×, and 20 uL/well NAAP substrate is added and incubated for 20 min. Plates are washed 3×, and PNPP substrate is added at 20 uL/well, and reactions are stopped, and optical density is measured using a colorimetric microplate reader set to 405 nm.

For a further test, the target named is T3, human PD-1-ECD (human, UniProt Q15116 25-170).
T3 construct: extracellular domain
T3 sequence (Q15116 25-170): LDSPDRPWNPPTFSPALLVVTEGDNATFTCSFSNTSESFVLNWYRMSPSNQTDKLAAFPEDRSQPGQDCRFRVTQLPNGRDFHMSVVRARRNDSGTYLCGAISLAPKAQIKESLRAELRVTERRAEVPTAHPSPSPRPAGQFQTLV
The test is described as above. The protocol: as §1

B1: PD-1-TIGIT parental IgG1 heteromab (bispecific antibody)
heavy 1: QVQLVQSGAEVKKPGSSVKVSCKASGGTFSSYAISWVRYAPGQGLEWMGLIIPSFDTAGYAQKFQGRVAITVDESTSTAYMELSSLRSEDTAVYYCARAEHSSTGTFDYWGRGTLVTVSSASTKGPSVFPLAPSSKSTSGGTAALGCLVADYFPEPVTVSWNSGALTSGVHTFPAVLQSSGLYSLASVVTVPSSSLGTQTYICNVNHKPSNTKVDERVEPKSCDKTHTCPPCPAPEAAGGPSVFLFPPKPKDTLMISRTPEVTCVVVDVSHEDPEVKFNWYVDGVEVHNAKTKPREEQYNSTYRVVSVLTVLHQDWLNGKEYKCKVSNKALAAPIEKTISKAKGQPREPQVYTLPPSREEMTDNQVSLTCLVKGFYPSDIAVEWESNGQPENNYKTTPPVLMSDGSFFLASKLTVDKSRWQQGNVFSCSVMHEALHNHYTQKSLSLSPGK
light 1: DIQMTQSPSSVSASVGDRVTITCRASQGISSWLAWYQRKPGDAPKLLISAASSLQSGVPSRFSGSGSGTDFTLTISSLQPEDFATYYCQQANHLPFTFGGGTKVEIKRTVAAPSVFIFPPSDKQLKSGTARVVCLLNNFYPREAKVQWKVDNALQSGNSQESVTEQDSKDSTYSLISTLTLSKADYEKHKVYACEVTHQGLSSPVTKSFNRGEC
heavy 2: EVQLVESGGGLVQPGGSLRLSCAASGFDFSSYGVPWVRKAPGKGLEWVGYIDPIFGPTYYADEVKGRFTISADDSKNSLYLQMNSLKTEDTAVYYCARDYSYGYAYALDIWGQGTLVTVSSASTKGPSVFPLAPSSKSTSGGTAALGCLVKDYFPEPVTVSWNSGALTSGVHTFPAVLQSSGLYSLSSVVTVPSSSLGTQTYICNVNHKPSNTKVDKRVEPKSCDKTHTCPPCPAPEAAGGPSVFLFPPKPKDTLMISRTPEVTCVVVDVSHEDPEVKFNWYVDGVEVHNAKTKPREEQYNSTYRVVSVLTVLHQDWLNGKEYKCKVSNKALAAPIEKTISKAKGQPRRPRVYTLPPSREEMTKNQVSLVCLVKGFYPSDIAVEWESNGQPENNYKTTPPVLDSDGSFFLYSVLTVDKSRWQQGNVFSCSVMHEALHNHYTQKSLSLSPGK
light 2: RIVMTQTPLSLSVTPGQPASISCQASQRISPYLAWYLDKPGQPPQLLISRASKLASGVPDRFSGSGSGTDFTLKISRVEAEDVGVYYCQSYYVHTSSGYAFGGGTKVEIKRTVAAPSVFIFPPSDEQLKSGTASVVCLLNNFYPREAKVQWKVDNALQSGNSQESVTEQDSKDSTYSLSSTLTLSKADYEKHKVYACEVTHQGLSSPVTKSFNRGEC
notes: Unmodified control heteromab; also called PD-1-TIGIT IgG1 heteromab; PD-1-Tigit IgG1 heteromab
Turning to B1, in test [1], the “% Elution” value came out at 99.6% and the “% Flow Through (FT)” value is 0.44%. Moreover, the EC50 (in general, the concentration that produces a half-maximal response) with human TIGIT-ECD stood at 0.0681 nM. Besides, it took 0.007 nM to reach a half-maximal effect with human PD-1-ECD (EC50).

B2: PD-1-TIGIT IgG1 heteromab (ADK on PD-1 light chain Fab region only) (bispecific antibody)
heavy 1: QVQLVQSGAEVKKPGSSVKVSCKASGGTFSSYAISWVRYAPGQGLEWMGLIIPSFDTAGYAQKFQGRVAITVDESTSTAYMELSSLRSEDTAVYYCARAEHSSTGTFDYWGRGTLVTVSSASTKGPSVFPLAPSSKSTSGGTAALGCLVADYFPEPVTVSWNSGALTSGVHTFPAVLQSSGLYSLASVVTVPSSSLGTQTYICNVNHKPSNTKVDERVEPKSCDKTHTCPPCPAPEAAGGPSVFLFPPKPKDTLMISRTPEVTCVVVDVSHEDPEVKFNWYVDGVEVHNAKTKPREEQYNSTYRVVSVLTVLHQDWLNGKEYKCKVSNKALAAPIEKTISKAKGQPREPQVYTLPPSREEMTDNQVSLTCLVKGFYPSDIAVEWESNGQPENNYKTTPPVLMSDGSFFLASKLTVDKSRWQQGNVFSCSVMHEALHNHYTQKSLSLSPGK
light 1: DIQMTQSPSSVSASVGDRVTITCRASQGISSWLAWYQRKPGDAPKLLISAASSLQSGVPSRFSGSGSGTDFTLTISSLQPEDFATYYCQQANHLPFTFGGGTKVEIKRADAAPSVFIFPPSDKQLKSGTARVVCLLNNFYPREAKVQWKVDNALQSGNSQESVTEQDSKDSTYSLISTLTLSKADYEKHKVYACEVTHKGLSSPVTKSFNRGEC
heavy 2: EVQLVESGGGLVQPGGSLRLSCAASGFDFSSYGVPWVRKAPGKGLEWVGYIDPIFGPTYYADEVKGRFTISADDSKNSLYLQMNSLKTEDTAVYYCARDYSYGYAYALDIWGQGTLVTVSSASTKGPSVFPLAPSSKSTSGGTAALGCLVKDYFPEPVTVSWNSGALTSGVHTFPAVLQSSGLYSLSSVVTVPSSSLGTQTYICNVNHKPSNTKVDKRVEPKSCDKTHTCPPCPAPEAAGGPSVFLFPPKPKDTLMISRTPEVTCVVVDVSHEDPEVKFNWYVDGVEVHNAKTKPREEQYNSTYRVVSVLTVLHQDWLNGKEYKCKVSNKALAAPIEKTISKAKGQPRRPRVYTLPPSREEMTKNQVSLVCLVKGFYPSDIAVEWESNGQPENNYKTTPPVLDSDGSFFLYSVLTVDKSRWQQGNVFSCSVMHEALHNHYTQKSLSLSPGK
light 2: RIVMTQTPLSLSVTPGQPASISCQASQRISPYLAWYLDKPGQPPQLLISRASKLASGVPDRFSGSGSGTDFTLKISRVEAEDVGVYYCQSYYVHTSSGYAFGGGTKVEIKRTVAAPSVFIFPPSDEQLKSGTASVVCLLNNFYPREAKVQWKVDNALQSGNSQESVTEQDSKDSTYSLSSTLTLSKADYEKHKVYACEVTHQGLSSPVTKSFNRGEC
notes: also called PD-1-Tigit IgG1 heteromab (with ADK LC Fab region on PD-1 arm only)
In the case of B2, in test [1], the “% Elution” value was found to be 78.2% and the “% Flow Through (FT)” value amounted to 21.8%. The molecule further returned an EC50 in the test with human TIGIT-ECD of 0.0108 nM. For the same molecule, the response with human PD-1-ECD was half-maximal at 0.0303 nM (EC50).

B3: PD-1-TIGIT IgG1 heteromab (DK on PD-1 light chain Fab region only) (bispecific antibody)
heavy 1: QVQLVQSGAEVKKPGSSVKVSCKASGGTFSSYAISWVRYAPGQGLEWMGLIIPSFDTAGYAQKFQGRVAITVDESTSTAYMELSSLRSEDTAVYYCARAEHSSTGTFDYWGRGTLVTVSSASTKGPSVFPLAPSSKSTSGGTAALGCLVADYFPEPVTVSWNSGALTSGVHTFPAVLQSSGLYSLASVVTVPSSSLGTQTYICNVNHKPSNTKVDERVEPKSCDKTHTCPPCPAPEAAGGPSVFLFPPKPKDTLMISRTPEVTCVVVDVSHEDPEVKFNWYVDGVEVHNAKTKPREEQYNSTYRVVSVLTVLHQDWLNGKEYKCKVSNKALAAPIEKTISKAKGQPREPQVYTLPPSREEMTDNQVSLTCLVKGFYPSDIAVEWESNGQPENNYKTTPPVLMSDGSFFLASKLTVDKSRWQQGNVFSCSVMHEALHNHYTQKSLSLSPGK
light 1: DIQMTQSPSSVSASVGDRVTITCRASQGISSWLAWYQRKPGDAPKLLISAASSLQSGVPSRFSGSGSGTDFTLTISSLQPEDFATYYCQQANHLPFTFGGGTKVEIKRTDAAPSVFIFPPSDKQLKSGTARVVCLLNNFYPRKAKVQWKVDNALQSGNSQESVTEQDSKDSTYSLISTLTLSKADYEKHKVYACEVTHQGLSSPVTKSFNRGEC
heavy 2: EVQLVESGGGLVQPGGSLRLSCAASGFDFSSYGVPWVRKAPGKGLEWVGYIDPIFGPTYYADEVKGRFTISADDSKNSLYLQMNSLKTEDTAVYYCARDYSYGYAYALDIWGQGTLVTVSSASTKGPSVFPLAPSSKSTSGGTAALGCLVKDYFPEPVTVSWNSGALTSGVHTFPAVLQSSGLYSLSSVVTVPSSSLGTQTYICNVNHKPSNTKVDKRVEPKSCDKTHTCPPCPAPEAAGGPSVFLFPPKPKDTLMISRTPEVTCVVVDVSHEDPEVKFNWYVDGVEVHNAKTKPREEQYNSTYRVVSVLTVLHQDWLNGKEYKCKVSNKALAAPIEKTISKAKGQPRRPRVYTLPPSREEMTKNQVSLVCLVKGFYPSDIAVEWESNGQPENNYKTTPPVLDSDGSFFLYSVLTVDKSRWQQGNVFSCSVMHEALHNHYTQKSLSLSPGK
light 2: RIVMTQTPLSLSVTPGQPASISCQASQRISPYLAWYLDKPGQPPQLLISRASKLASGVPDRFSGSGSGTDFTLKISRVEAEDVGVYYCQSYYVHTSSGYAFGGGTKVEIKRTVAAPSVFIFPPSDEQLKSGTASVVCLLNNFYPREAKVQWKVDNALQSGNSQESVTEQDSKDSTYSLSSTLTLSKADYEKHKVYACEVTHQGLSSPVTKSFNRGEC
notes: also called PD-1-Tigit IgG1 heteromab (with DK LC Fab region on PD-1 arm only)
On to B3, for which the “% Elution” value in test [1] came to 73.5%. Also, in test [1], the “% Flow Through (FT)” value was determined as 26.6%. The values for the EC50 in the test with human TIGIT-ECD and with human PD-1-ECD were 0.0261 nM and 0.0097 nM, respectively.

Source of the values: patent US20230242671A1 (Eli Lilly, published 2023).
